Experimental findings from patent US20190322984A1 (MUSC FOUNDATION FOR RESEARCH DEVELOPMENT, published 2019) are described below.

In the experiment the target is T1, mouse IL-2Rα on mouse effector CD8+ T cells (mouse, UniProt P01590 22-268).
T1 construct: whole, on cells; also called mIL-2Rα; CD25
T1 sequence (looked up): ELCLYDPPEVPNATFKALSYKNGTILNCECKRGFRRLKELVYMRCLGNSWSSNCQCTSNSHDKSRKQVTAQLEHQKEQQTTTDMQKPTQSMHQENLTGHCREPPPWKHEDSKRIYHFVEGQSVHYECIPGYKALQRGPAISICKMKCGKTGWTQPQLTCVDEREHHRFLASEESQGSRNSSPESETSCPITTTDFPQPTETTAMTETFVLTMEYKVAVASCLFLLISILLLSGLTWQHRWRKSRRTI
Nature of the experiment: flow cytometry, surface IL-2 staining of mIL-2-pulsed polyclonal effector CD8+ T cells. The protocol:
FIGS. 3a-3g—IL-2Rα facilitates sustained IL-2 signaling through creation of an extracellular reservoir and recycling. (a) Presence of IL-2 on the surface of polyclonal T cells depends on IL-2Rα. Polyclonal effector CD8⁺ T cells were pulsed for 2 hours with or without mIL-2. Prior to (and during) the pulse, T cells were incubated with anti-IL-2Rα mAb (PC61). Cells were then washed and stained for surface IL-2. (b) Time course of surface IL-2 on polyclonal T cells after reculture at 37° C. (c) Levels of pSTAT5 in Tc1 cells that were pulsed with IL-2, washed, and recultured at 37° C. with or without anti-IL-2 mAb (clone S4B6 or 1A12). (d) Recycling of IL-2 on effector T cells. Pmel-1 Tc1 cells were incubated with hIL-2 or mIL-2 at 37° C. for 2 hours. As indicated, cells were then acid washed and recultured at 37° C. for 90 minutes in the presence of anti-hIL-2 mAb conjugated to Alexa647. Cells were then washed, fixed, and assayed by flow cytometry. (e) Recycling of IL-2 on pulsed cells while mixed with non-pulsed cells. Pmel-1 Tc1 cells were pulsed with hIL-2 at either 4° C. or 37° C. for 2 hours, and then acid washed. Cells were then mixed with non-pulsed CFSE-labeled Tc1 cells. The mixed cells were recultured at 37° C. for 45 minutes in the presence of anti-hIL-2 mAb conjugated to Alexa647. Cells were then washed, fixed, and assayed by flow cytometry. […]

B1: Mouse (m) IL-2 (ligand, UniProt P04351 21-169, looked up)
chain: APTSSSTSSSTAEAQQQQQQQQQQQQHLEQLLMDLQELLSRMENYRNLKLPRMLTFKFYLPKQATELKDLQCLEDELGPLRHVLDLTQSKSFQLEDAENFISNIRVTVVKLKGSDNTFECQFDDESATVVDFLRRWIAFCQSIISTSPQ
notes: Bought recombinant cytokine; used at 200 ng/ml in pulse assays; also called mouse IL-2
As to B1, the binding result is “binds”.
